Reference: article PMC12775136 (2025)

Target: T1, 3′hExofl (human, UniProt Q8IV48 1-349)
T1 chain: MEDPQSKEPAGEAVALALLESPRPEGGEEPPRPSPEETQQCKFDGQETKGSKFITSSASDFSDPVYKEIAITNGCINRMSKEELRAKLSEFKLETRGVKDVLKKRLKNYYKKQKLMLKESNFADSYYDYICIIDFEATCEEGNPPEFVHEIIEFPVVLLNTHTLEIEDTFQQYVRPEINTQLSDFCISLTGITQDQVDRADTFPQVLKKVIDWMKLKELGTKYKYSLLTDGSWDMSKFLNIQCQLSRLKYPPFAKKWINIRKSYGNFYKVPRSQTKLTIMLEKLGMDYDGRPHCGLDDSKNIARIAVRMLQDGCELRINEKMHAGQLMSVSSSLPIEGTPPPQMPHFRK
Assay: NMR

Kd: 200 µM
B1: UPF2-AL (domain or fragment)
chain: NDKDSKDSMTEGENLEEDEEEEEGGAETEEQSGNESEVNEPEEEEGSDNDDDEGEEEEEENTDYLTDSNKENETDEENTEVMIKGGGLKH
